# Laboratory results: IntAct's records for PubMed 16326715
# B1: Cytochrome b-245 light chain (Homo sapiens), P13498 (parent)
# chain: MGQIEWAMWANEQALASGLILITGGIVATAGRFTQWYFGAYSIVAGVFVCLLEYPRGKRKKGSTMERWGQKYMTAVVKLFGPFTRNYYVRAVLHLLLSVPAGFLLATILGTACLAIASGIYLLAAVRGEQWTPIEPKPRERPQIGGTIKQPPSNPPPRPPAEARKKPSEEEAAVAAGGPPGGPQVNPIPVTDEVV
# B2: Neutrophil cytosol factor 1 (Homo sapiens), P14598 (parent)
# chain: MGDTFIRHIALLGFEKRFVPSQHYVYMFLVKWQDLSEKVVYRRFTEIYEFHKTLKEMFPIEAGAINPENRIIPHLPAPKWFDGQRAAENRQGTLTEYCSTLMSLPTKISRCPHLLDFFKVRPDDLKLPTDNQTKKPETYLMPKDGKSTATDITGPIILQTYRAIANYEKTSGSEMALSTGDVVEVVEKSESGWWFCQMKAKRGWIPASFLEPLDSPDETEDPEPNYAGEPYVAIKAYTAVEGDEVSLLEGEAVEVIHKLLDGWWVIRKDDVTGYFPSMYLQKSGQDVSQAQRQIKRGAPPRRSSIRNAHSIHQRSRKRLSQDAYRRNSVRFLQQRRRQARPGPQSPGSPLEEERQTQRSKPQPAVPPRPSADLILNRCSESTKRKLASAV
# partner: B1 chain
# Variants of: B1
# Conditions: with ncf1_human NCF1, P14598
row,Variant,effect of a mutation on the interaction
1,A163G;R164G,decreasing interaction

# Variants of: B2
# Conditions: with cy24a_human CYBA, P13498
row,Variant,effect of a mutation on the interaction
1,F209A,decreasing interaction
2,I164A,decreasing interaction
